Laboratory results as given in paper PMC3856898 (FEBS letters, 2013).
Several values for one entry are separate records, joined by “and”; a condition that tells them apart may be missing. Identical values can stand only once.

Key:
Nrp1 cytoplasmic domain [1] = target: T1, Nrp1 cytoplasmic domain (UniProt P97333 880-923); test: SPR
Nrp1 cytoplasmic domain [2] = target: T1, Nrp1 cytoplasmic domain; test: ITC

T1 sequence (P97333 880-923): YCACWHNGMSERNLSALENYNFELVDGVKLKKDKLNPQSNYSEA

B1: FlnA repeats 23-24 (domain or fragment)
chain: GHGGDPGLVSAYGAGLEGGVTGNPAEFVVNTSNAGAGALSVTIDGPSKVKMDCQECPEGYRVTYTPMAPGSYLISIKYGGPYHIGGSPFKAKVTGPRLVSNHSLHETSSVFVDSLTKATCAPQHGAPGPGPADASKVVAKGLGLSKAYVGQKSSFTVDCSKAGNNMLLVGVHGPRTPCEEILVKHVGSRLYSVSYLLKDKGEYTLVVKWGDEHIPGSPYRVVVP
Question: B1 was tested. Which Kd (Nrp1 cytoplasmic domain [1]) did it give?
Answer: The Kd was 9.6 ± 1.2 µM.

Question: What about the Kd (Nrp1 cytoplasmic domain [2]) of the same binder?
Answer: The Kd was 12.1 µM and 12.9 µM.
